Experimental findings from PMC11962071 (Nature Communications, 2025) are described below.

In test [1] the target is Drosophila melanogaster calmodulin (dCaM), recombinant (Drosophila melanogaster, UniProt P62152 1-149). The experiment in a line: ITC.
For test [2], the target named is Mus musculus calmodulin (mCaM), recombinant (Mus musculus, UniProt P0DP27 1-149). Briefly: crystal structure.

Consider MDENAIRAAIFEQKWYRRHQARREM (domain or fragment) [RDGC IQ (aa 1-25) I12E], for which, in test [1], the “fold decrease in affinity against the wild type” value was found to be 236 fold.
As for AAALIQRWYRRYMARLEM [mPPEF2 IQ (aa 22-39)], the binding result in test [2] is recorded as “binds”.
